Results: patent publication US20240252614A1 (Pfizer, published 2024)

Experiments:
[1] = biological target: T1, PIV1050 (PIV1); experiment: BLI, 56C stress;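 further: binding of thermally stressed PIV1 F mutant supernatant to mAb on AHC biosensors for 5 min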
T1 construct: F113G, F114S, Q92C-G134C, A466V, S473V, A480V
Method: (§1) The OCTET HTX (Sartorius, Gottingen, Germany) instrument was used to evaluate the expression and conformational integrity for each mutant. All measurements were conducted at 30° C. temperature in 96-well black plates (Corning, Corning, NY) with a final volume of 240 μL per well at a constant agitation rate of 1000 RPM.
(§2) Conformation integrity of PIV1 F protein mutants were evaluated by a thermal stress experiment. Crude cell culture supernatants were normalized based on the results of the titer quantitation and then incubated for 1 hour at room temperature and two higher temperatures. For the initial testing of PIV1 mutants, the two temperatures were 50° C. and 53° C. […] Anti-Human IgG Fc Capture (AHC) biosensors were first equilibrated in PB for before being dipped into more PB to establish the initial baseline. […] The mAb-bound biosensors were then dipped into the thermal stresses cell culture supernatants for 5 minutes.

[2] = biological target: T2, PIV1052 (PIV1); experiment: BLI, 56C stress;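 further: binding of thermally stressed PIV1 F mutant supernatant to mAb on AHC biosensors for 5 min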
T2 construct: Q92C-G134C, A466V, S473V; also called PV1052
Method: as §1, §2

[3] = biological target: T3, PIV1066 (PIV1); experiment: BLI, 56C stress;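 further: binding of thermally stressed PIV1 F mutant supernatant to mAb on AHC biosensors for 5 min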
T3 construct: A466I, S473I, A480L, Q92L, G134A
Method: as §1, §2

[4] = biological target: T4, PIV1057 (PIV1); experiment: BLI, 56C stress;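 further: binding of thermally stressed PIV1 F mutant supernatant to mAb on AHC biosensors for 5 min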
T4 construct: A466L, S473L, A480L, Q92A, G134A
Method: as §1, §2

[5] = biological target: T5, PIV1058 (PIV1); experiment: BLI, 56C stress
T5 construct: A466L, S473L, Q92A, G134A
Method: as §1, §2

[6] = biological target: T6, PIV1060 (PIV1); experiment: BLI, 56C stress
T6 construct: Q92L, G134A, A466L, S473L, A480L
Method: as §1, §2

[7] = biological target: T7, PIV1054 (PIV1); experiment: BLI, 56C stress
T7 construct: A466L, S473L, A480L, G134A
Method: as §1, §2

[8] = biological target: T8, PIV1048 (PIV1); experiment: BLI, 56C stress
T8 construct: Q92C-G134C, A466L, S473L, A480L
Method: as §1, §2

[9] = biological target: T9, PIV1061 (PIV1); experiment: BLI, 56C stress
T9 construct: Q92L, G134A, A466L, S473L
Method: as §1, §2

[10] = biological target: T10, PIV1055 (PIV1); experiment: BLI, 56C stress
T10 construct: A466L, S473L, G134A
Method: as §1, §2

[11] = biological target: T11, PIV1062 (PIV1); experiment: BLI, 56C stress
T11 construct: F113G, F114S, A466L, S473L, A480L, Q92A, G134L
Method: as §1, §2

[12] = biological target: T12, PIV1063 (PIV1); experiment: BLI, 56C stress
T12 construct: A466L, S473L, A480L, Q92A, G134L
Method: as §1, §2

[13] = biological target: T13, PIV1068 (PIV1); experiment: BLI, 56C stress
T13 construct: A466I, S473I, A480I, Q92L, G134A
Method: as §1, §2

[14] = biological target: T14, PIV1051 (PIV1); experiment: BLI, 56C stress
T14 construct: Q92C-G134C, A466V, S473V, A480V
Method: as §1, §2

[15] = biological target: T15, hMPV086 (hMPV A, UniProt Q6WB98 19-102); experiment: BLI, no stress
T15 construct: T411C-Q434C, L141C-A161C, T49I; also called hMP0086
Method: as §1
(§3) Conformation integrity of hMPV A F protein mutants were evaluated by thermal stress experiments. Crude cell culture supernatants were normalized based on the results of the titer quantitation and then incubated for 1 hour at room temperature and two higher temperatures. […] Anti-Human IgG Fc Capture (AHC) biosensors were first equilibrated in PB before being dipped into more PB to establish the initial baseline. […] The mAb-bound biosensors were then dipped into the thermal stressed cell culture supernatants for 5 minutes. The kinetics analysis was done by OCTET data analysis software (version 12.0, Sartorius) based on curve fitting of the entire associate step.

[16] = biological target: T16, hMPV090 (hMPV A, UniProt Q6WB98 19-102); experiment: BLI, no stress
T16 construct: T411C-Q434C, L141C-A161C, A459P, G239A, T49I, S149T, T365I
Method: as §1, §3

[17] = biological target: T17, hMPV081 (hMPV A, UniProt Q6WB98 19-102); experiment: BLI, no stress
T17 construct: T411C-Q434C, A140C-S149C, T365I
Method: as §1, §3

[18] = biological target: hMPV A F WT Control (hMPV A, UniProt Q6WB98 19-102); experiment: BLI, no stress
Method: as §1, §3

[19] = biological target: T18, hMPV089 (hMPV A, UniProt Q6WB98 19-102); experiment: BLI, no stress
T18 construct: T411C-Q434C, L141C-A161C, S149T
Method: as §1, §3

[20] = biological target: T19, hMPV083 (hMPV A, UniProt Q6WB98 19-102); experiment: BLI, no stress
T19 construct: T411C-Q434C, A140C-S149C, A459P, G239A, T49I, T365I
Method: as §1, §3

[21] = biological target: T20, hMPV085 (hMPV A, UniProt Q6WB98 19-102); experiment: BLI, no stress
T20 construct: T411C-Q434C, L141C-A161C, A459P
Method: as §1, §3

[22] = biological target: T21, hMPV078 (hMPV A, UniProt Q6WB98 19-102); experiment: BLI, no stress
T21 construct: T411C-Q434C, A140C-S149C
Method: as §1, §3

[23] = biological target: T22, hMPV088 (hMPV A, UniProt Q6WB98 19-102); experiment: BLI, no stress
T22 construct: T411C-Q434C, L141C-A161C, G239A
Method: as §1, §3

[24] = biological target: T23, hMPV087 (hMPV A, UniProt Q6WB98 19-102); experiment: BLI, no stress
T23 construct: T411C-Q434C, L141C-A161C, T365I
Method: as §1, §3

[25] = biological target: T24, hMPV082 (hMPV A, UniProt Q6WB98 19-102); experiment: BLI, no stress
T24 construct: T411C-Q434C, A140C-S149C, G239A
Method: as §1, §3

[26] = biological target: T25, hMPV084 (hMPV A, UniProt Q6WB98 19-102); experiment: BLI, no stress
T25 construct: T411C-Q434C, L141C-A161C
Method: as §1, §3

[27] = biological target: T26, hMPV097 (hMPV A, UniProt Q6WB98 19-102); experiment: BLI, no stress
T26 construct: T411C-Q434C, E146C-T160C, A459P, G239A, T49I, S149T, T365I
Method: as §1, §3

[28] = biological target: T27, hMPV079 (hMPV A, UniProt Q6WB98 19-102); experiment: BLI, no stress
T27 construct: T411C-Q434C, A140C-S149C, A459P
Method: as §1, §3

[29] = biological target: T17, hMPV081; experiment: BLI, 53C stress
Method: as §1, §3

[30] = biological target: T20, hMPV085; experiment: BLI, 53C stress
Method: as §1, §3

[31] = biological target: T21, hMPV078; experiment: BLI, 53C stress
Method: as §1, §3

[32] = biological target: T22, hMPV088; experiment: BLI, 53C stress
Method: as §1, §3

B1: PIV1-8 mAb (antibody, V domains shown)
VH: QVQLVQSGAEVKKPGSSVKVSCEASGGTFSNYVISWVRQAPGQGLEWMGGIIPVFATAKYAQKFQGRVTIIADQSTNTAYLELSSLRSDDTAVYFCASVDSGGTWWDAFAIWGQGTMVTVSS
VL: QAVVTQPRSVSGSPGQAVTISCTGTSSDVGGYNYVSWYQHHPGKAPKLIIYDVTKRPSGVPDRFSGSKSGNTASLTISGLQTEYEADYYCCSYAGSYTLVFGGGTKLTVLG
notes: human IgG1; also called hPIV1-8 mAb; hPIV1-8
- Response Shift [1]: 0.695 nm
- Response Shift [2]: -0.094 nm
- Response Shift [3]: 0.582 nm
- Response Shift [4]: 0.737 nm
- Response Shift [5]: 0.543 nm
- Response Shift [6]: 0.597 nm
- Response Shift [7]: 0.723 nm
- Response Shift [8]: 0.71 nm
- Response Shift [9]: 0.526 nm
- Response Shift [10]: 0.682 nm
- Response Shift [11]: 0.623 nm
- Response Shift [12]: -0.069 nm
- Response Shift [13]: 0.559 nm
- Response Shift [14]: 0.322 nm

B2: hMPV-2 mAb (antibody, V domains shown)
VH: QVQLQQSGAEVKKPGASVKVSCKASGYTFTSYGISWVRQAPGQGLEWMGWISGYNGNTNYAQTFQGTFTMTTDTSTSTAYMELRRLRSGDTAVYYCARDRYYASGSYNGMDVWGQGTTVTVSS
VL: QSALTQPPSASGAPGQRVTVSCSGSSSNVGSSSVYWYQQLPGTAPKLLIYRNNQRPSGVPDRFSGSKSGTSASLAISGLRSEDEADYYCAAWDDSLSGWVFGGGTKLTVLG
notes: human IgG1
- Response Shift [15]: 0.851 nm
- Response Shift [16]: 0.895 nm
- Response Shift [17]: 0.837 nm
- Response Shift [18]: 0.898 nm
- Response Shift [19]: 0.891 nm
- Response Shift [20]: 0.847 nm
- Response Shift [21]: 0.766 nm
- Response Shift [22]: 0.86 nm
- Response Shift [23]: 0.878 nm
- Response Shift [24]: 0.867 nm
- Response Shift [25]: 0.854 nm
- Response Shift [26]: 0.862 nm
- Response Shift [27]: 0.923 nm
- Response Shift [28]: 0.791 nm
- Response Shift [29]: 0.778 nm
- Response Shift [30]: 0.672 nm
- Response Shift [31]: 0.757 nm
- Response Shift [32]: 0.816 nm
